Experimental data from patent publication US20250135039A1, “INHIBITOR-RESISTANT MGMT MODIFICATIONS AND MODIFICATION OF MGMT-ENCODING NUCLEIC ACIDS” (Ensoma, Inc., priority 2022, published 2025).

System: U251 human glioblastoma cell line
Test: in vitro FM-HCR assay of MGMT activity (mPlum O^6MeG reporter plasmid)
Assay type: cell-based
Conditions: for Reporter expression (%) mean, O^6BG: 100 μM O^6BG; for Reporter expression (%) mean, O^6BG / Reporter expression (%) mean, DMSO: U251 cells, flow cytometry 24 h after transfection, damaged/undamaged reporter, inversely related to MGMT activity; for Reporter expression (%) mean, DMSO: 0.1% DMSO; for MGMT activity (a.u.) DMSO / MGMT activity (% of WT) DMSO: DMSO condition; for MGMT activity (a.u.) DMSO / MGMT activity (a.u.) O^6BG: determined from percent reporter expression; for MGMT activity (% of WT) DMSO / MGMT activity (% of WT) O^6BG: relative to wild-type MGMT in same condition; for Relative MGMT activity (%): MGMT activity (a.u.) in O^6BG divided by DMSO x 100, higher values indicate resistance; for MGMT activity (a.u.) O^6BG / MGMT activity (% of WT) O^6BG: O^6BG condition; for Ratio percent reporter expression (O^6BG/DMSO): lower values indicate resistance to O^6BG; for O^6BG resistance relative to WT (%): percentage difference in relative MGMT activity between variant and wild-type MGMT
From the text: The present Example includes, in part, an in vitro fluorescence multiplex host cell reactivation (FM-HCR) assay in which a reporter plasmid with O^6MeG-containing oligonucleotides is used. The oligonucleotides induce transcription errors that lead to expression of fluorescent mPlum protein. Functional MGMT will repair the O^6MeG sites and reduce mPlum expression. This represents a rapid and validated assay system to assess intracellular activity of MGMT. Further description of certain such assays is found in Nagel (2014 PNAS USA 111 (18): E1823-32, which is incorporated herein by reference.
The present Example uses an in vitro FM-HCR assay in which a reporter plasmid with 0° MeG-containing oligonucleotides is used to assay MGMT activity in cells. The O^6MeG-containing oligonucleotides induce transcription errors that lead to expression of fluorescent mPlum protein. Functional MGMT will repair the O'MeG sites and reduce mPlum expression. This represents a rapid and validated assay system to assess intracellular activity of MGMT. Further description of certain such assays is found in Nagel et al., 2014 PNAS USA 111 (18): E1823-32 and Piett et al., 2021 Nat. Protoc. 16 (9): 4265-4298, each of which is incorporated herein by reference.
The in vitro FM-HCR assay was performed using the U251 human glioblastoma cell line. The cells were cultured in DMEM with 10% FBS and passaged every three days.
To express MGMT variants in the cells, plasmids encoding each MGMT variant were designed and generated by either de novo synthesis or cloning into the pTwist EF1 Alpha Puro vector at the HindII-BamHI multiple cloning site. The pTwist EF1 Alpha Puro plasmid vector drives expression of the MGMT transcript from a human EF1-alpha promoter including intron 1 and an SV40 polyadenylation signal. Plasmids encoding the MGMT variants were purified using standard molecular biology techniques from E. coli with low endotoxins. Plasmids encoding wild-type MGMT or O^6BG-resistant MGMT^P140K were also designed and generated for use as controls.
To perform the in vitro FM-HCR assay, U251 cells were seeded in 12-well plates at a density of 50,000 cells per well in 1 mL culture media. The following day, the media was changed to 1 mL of culture media containing O^6BG (100 μM O^6BG and 0.1% DMSO final) or 0.1% DMSO; and the cells were transfected with 1,000 ng of a plasmid cocktail using Lipofectamine 3000 (ThermoFisher Scientific) at 1.8 μL Lipofectamine 3000 Reagent and 2 μL P3000 reagent in Opti-MEM medium (ThermoFisher Scientific). […] For the “undamaged” condition, the plasmid cocktail replaced the mPlum O^6MeG reporter plasmid with 100 ng of a plasmid expressing mPlum. The plasmid encoding BFP was used as an internal transfection control. For transfections where no MGMT encoding plasmid is used (no pMGMT), 250 ng of additional carrier plasmid was used to maintain a total DNA amount of 1,000 ng in each transfection. Four hours after transfection, the transfection medium was changed.
All transfected cells were analyzed by flow cytometry at 24-hours after transfection. Data was analyzed as previously described in Nagel et al., 2014 PNAS USA 111 (18): E1823-32 and Piett et al., 2021 Nat. Protoc. 16 (9): 4265-4298. For each condition, normalized reporter expression was determined by taking the product of the mPlum-positive cell count and the mean mPlum fluorescence intensity in mPlum-positive cells and dividing it by the product of the BFP-positive cell count and the mean BFP fluorescence intensity in BFP-positive cells. Next, for each MGMT variant, the percent reporter expression was determined by taking the normalized reporter expression in the “damaged” condition and dividing it by the normalized reporter expression in the “undamaged” condition, and then multiplying by 100 to obtain a percent value. […]

B1: M134F: MGMT polypeptide with mutation M134F (protein)
chain: MDKDCEMKRTTLDSPLGKLELSGCEQGLHEIKLLGKGTSAADAVEVPAPAAVLGGPEPLMQCTAWLNAYFHQPEAIEEFPVPALHHPVFQQESFTRQVLWKLLKVVKFGEVISYQQLAALAGNPKAARAVGGAFRGNPVPILIPCHRVVCSSGAVGNYSGGLAVKEWLLAHEGHRLGKPGLGGSSGLAGAWLKGAGATSGSPPAGRN
B1 was tested, and the “Reporter expression (%) mean, O^6BG” value was 97.0%, the “Reporter expression (%) mean, DMSO” value was 51.3% and the “MGMT activity (a.u.) DMSO” value was 1.95 a.u. The “MGMT activity (% of WT) DMSO” value was 36.0 % of WT, the “Relative MGMT activity (%)” value was 52.9% and the “MGMT activity (a.u.) O^6BG” value was 1.03 a.u. For the same molecule, the “MGMT activity (% of WT) O^6BG” value was 72.2 % of WT, the “Ratio percent reporter expression (O^6BG/DMSO)” value was 1.89 and the “O^6BG resistance relative to WT (%)” value was 100.2%.

B2: M134V: MGMT polypeptide with mutation M134V (protein)
chain: MDKDCEMKRTTLDSPLGKLELSGCEQGLHEIKLLGKGTSAADAVEVPAPAAVLGGPEPLMQCTAWLNAYFHQPEAIEEFPVPALHHPVFQQESFTRQVLWKLLKVVKFGEVISYQQLAALAGNPKAARAVGGAVRGNPVPILIPCHRVVCSSGAVGNYSGGLAVKEWLLAHEGHRLGKPGLGGSSGLAGAWLKGAGATSGSPPAGRN
With B2 the “Reporter expression (%) mean, O^6BG” value was 66.0%, the “Reporter expression (%) mean, DMSO” value was 17.8% and the “MGMT activity (a.u.) DMSO” value was 5.63 a.u. The “MGMT activity (% of WT) DMSO” value was 104.2 % of WT, the “Relative MGMT activity (%)” value was 26.9% and the “MGMT activity (a.u.) O^6BG” value was 1.52 a.u. For the same molecule, the “MGMT activity (% of WT) O^6BG” value was 106.1 % of WT, the “Ratio percent reporter expression (O^6BG/DMSO)” value was 3.72 and the “O^6BG resistance relative to WT (%)” value was 1.8%.

B3: R135K: MGMT polypeptide with mutation R135K (protein)
chain: MDKDCEMKRTTLDSPLGKLELSGCEQGLHEIKLLGKGTSAADAVEVPAPAAVLGGPEPLMQCTAWLNAYFHQPEAIEEFPVPALHHPVFQQESFTRQVLWKLLKVVKFGEVISYQQLAALAGNPKAARAVGGAMKGNPVPILIPCHRVVCSSGAVGNYSGGLAVKEWLLAHEGHRLGKPGLGGSSGLAGAWLKGAGATSGSPPAGRN
For B3, the “Reporter expression (%) mean, O^6BG” value was 84.3%, the “Reporter expression (%) mean, DMSO” value was 13.3% and the “MGMT activity (a.u.) DMSO” value was 7.50 a.u. For the same molecule, the “MGMT activity (% of WT) DMSO” value was 138.8 % of WT, the “Relative MGMT activity (%)” value was 15.8% and the “MGMT activity (a.u.) O^6BG” value was 1.19 a.u. For the same molecule, the “MGMT activity (% of WT) O^6BG” value was 83.0 % of WT, the “Ratio percent reporter expression (O^6BG/DMSO)” value was 6.33 and the “O^6BG resistance relative to WT (%)” value was −40.2%.

B4: M134W: MGMT polypeptide with mutation M134W (protein)
chain: MDKDCEMKRTTLDSPLGKLELSGCEQGLHEIKLLGKGTSAADAVEVPAPAAVLGGPEPLMQCTAWLNAYFHQPEAIEEFPVPALHHPVFQQESFTRQVLWKLLKVVKFGEVISYQQLAALAGNPKAARAVGGAWRGNPVPILIPCHRVVCSSGAVGNYSGGLAVKEWLLAHEGHRLGKPGLGGSSGLAGAWLKGAGATSGSPPAGRN
With B4 the “Reporter expression (%) mean, O^6BG” value was 112.3%, the “Reporter expression (%) mean, DMSO” value was 103.5% and the “MGMT activity (a.u.) DMSO” value was 0.97 a.u. For the same molecule, the “MGMT activity (% of WT) DMSO” value was 17.9 % of WT, the “Relative MGMT activity (%)” value was 92.1% and the “MGMT activity (a.u.) O^6BG” value was 0.89 a.u. For the same molecule, the “MGMT activity (% of WT) O^6BG” value was 62.3 % of WT, the “Ratio percent reporter expression (O^6BG/DMSO)” value was 1.09 and the “O^6BG resistance relative to WT (%)” value was 248.6%.

B5: R135L: MGMT polypeptide with mutation R135L (protein)
chain: MDKDCEMKRTTLDSPLGKLELSGCEQGLHEIKLLGKGTSAADAVEVPAPAAVLGGPEPLMQCTAWLNAYFHQPEAIEEFPVPALHHPVFQQESFTRQVLWKLLKVVKFGEVISYQQLAALAGNPKAARAVGGAMLGNPVPILIPCHRVVCSSGAVGNYSGGLAVKEWLLAHEGHRLGKPGLGGSSGLAGAWLKGAGATSGSPPAGRN
In the case of B5, the “Reporter expression (%) mean, O^6BG” value is reported as 82.5%, the “Reporter expression (%) mean, DMSO” value is reported as 42.8% and the “MGMT activity (a.u.) DMSO” value is reported as 2.34 a.u. The “MGMT activity (% of WT) DMSO” value was 43.3 % of WT, the “Relative MGMT activity (%)” value was 51.8% and the “MGMT activity (a.u.) O^6BG” value was 1.21 a.u. The “MGMT activity (% of WT) O^6BG” value was 84.8 % of WT, the “Ratio percent reporter expression (O^6BG/DMSO)” value was 1.93 and the “O^6BG resistance relative to WT (%)” value was 96.1%.

B6: M134Y: MGMT polypeptide with mutation M134Y (protein)
chain: MDKDCEMKRTTLDSPLGKLELSGCEQGLHEIKLLGKGTSAADAVEVPAPAAVLGGPEPLMQCTAWLNAYFHQPEAIEEFPVPALHHPVFQQESFTRQVLWKLLKVVKFGEVISYQQLAALAGNPKAARAVGGAYRGNPVPILIPCHRVVCSSGAVGNYSGGLAVKEWLLAHEGHRLGKPGLGGSSGLAGAWLKGAGATSGSPPAGRN
For B6, the “Reporter expression (%) mean, O^6BG” value was 106.3%, the “Reporter expression (%) mean, DMSO” value was 108.0% and the “MGMT activity (a.u.) DMSO” value was 0.93 a.u. The “MGMT activity (% of WT) DMSO” value was 17.1 % of WT, the “Relative MGMT activity (%)” value was 101.6% and the “MGMT activity (a.u.) O^6BG” value was 0.94 a.u. For the same molecule, the “MGMT activity (% of WT) O^6BG” value was 65.8 % of WT, the “Ratio percent reporter expression (O^6BG/DMSO)” value was 0.98 and the “O^6BG resistance relative to WT (%)” value was 284.3%.

B7: R135G: MGMT polypeptide with mutation R135G (protein)
chain: MDKDCEMKRTTLDSPLGKLELSGCEQGLHEIKLLGKGTSAADAVEVPAPAAVLGGPEPLMQCTAWLNAYFHQPEAIEEFPVPALHHPVFQQESFTRQVLWKLLKVVKFGEVISYQQLAALAGNPKAARAVGGAMGGNPVPILIPCHRVVCSSGAVGNYSGGLAVKEWLLAHEGHRLGKPGLGGSSGLAGAWLKGAGATSGSPPAGRN
In the case of B7, the “Reporter expression (%) mean, O^6BG” value is reported as 106.0%, the “Reporter expression (%) mean, DMSO” value is reported as 20.0% and the “MGMT activity (a.u.) DMSO” value is reported as 5.00 a.u. The “MGMT activity (% of WT) DMSO” value was 92.5 % of WT, the “Relative MGMT activity (%)” value was 18.9% and the “MGMT activity (a.u.) O^6BG” value was 0.94 a.u. For the same molecule, the “MGMT activity (% of WT) O^6BG” value was 66.0 % of WT, the “Ratio percent reporter expression (O^6BG/DMSO)” value was 5.30 and the “O^6BG resistance relative to WT (%)” value was −28.6%.
